Here are results for three molecules from patent US20230272116A1 (Hoffmann-La Roche, published 2023).

B3: P1AF0713 (CEA CH1A1A split DOTA-VH-AST) (antibody, human IgG1, kappa, L234A L235A)
heavy 1: QVQLVQSGAEVKKPGASVKVSCKASGYTFTEFGMNWVRQAPGQGLEWMGWINTKTGEATYVEEFKGRVTFTTDTSTSTAYMELRSLRSDDTAVYYCARWDFAYYVEAMDYWGQGTTVTVSSASTKGPSVFPLAPSSKSTSGGTAALGCLVKDYFPEPVTVSWNSGALTSGVHTFPAVLQSSGLYSLSSVVTVPSSSLGTQTYICNVNHKPSNTKVDKKVEPKSCDKTHTCPPCPAPEAAGGPSVFLFPPKPKDTLMISRTPEVTCVVVDVSHEDPEVKFNWYVDGVEVHNAKTKPREEQYNSTYRVVSVLTVLHQDWLNGKEYKCKVSNKALGAPIEKTISKAKGQPREPQVCTLPPSRDELTKNQVSLSCAVKGFYPSDIAVEWESNGQPENNYKTTPPVLDSDGSFFLVSKLTVDKSRWQQGNVFSCSVMHEALHNHYTQKSLSLSPG
heavy 2: not shown
light: DIQMTQSPSSLSASVGDRVTITCKASAAVGTYVAWYQQKPGKAPKLLIYSASYRKRGVPSRFSGSGSGTDFTLTISSLQPEDFATYYCHQYYTYPLFTFGQGTKLEIKRTVAAPSVFIFPPSDEQLKSGTASVVCLLNNFYPREAKVQWKVDNALQSGNSQESVTEQDSKDSTYSLSSTLTLSKADYEKHKVYACEVTHQGLSSPVTKSFNRGEC
notes: CH1A1A anti-CEA IgG1 (knob-into-hole); also called CEA specific SPLIT antibody; P6_B

Assay [1] has as its target T1, Carcinoembryonic antigen (CEA), Carcinoembryonic antigen-related cell adhesion molecule 5 (CEACAM5), on cells (human, UniProt P06731 35-685).
T1 construct: whole, on cells; also called CEA on MKN-45 cells; CEA in BxPC3 tumours
T1 sequence (looked up): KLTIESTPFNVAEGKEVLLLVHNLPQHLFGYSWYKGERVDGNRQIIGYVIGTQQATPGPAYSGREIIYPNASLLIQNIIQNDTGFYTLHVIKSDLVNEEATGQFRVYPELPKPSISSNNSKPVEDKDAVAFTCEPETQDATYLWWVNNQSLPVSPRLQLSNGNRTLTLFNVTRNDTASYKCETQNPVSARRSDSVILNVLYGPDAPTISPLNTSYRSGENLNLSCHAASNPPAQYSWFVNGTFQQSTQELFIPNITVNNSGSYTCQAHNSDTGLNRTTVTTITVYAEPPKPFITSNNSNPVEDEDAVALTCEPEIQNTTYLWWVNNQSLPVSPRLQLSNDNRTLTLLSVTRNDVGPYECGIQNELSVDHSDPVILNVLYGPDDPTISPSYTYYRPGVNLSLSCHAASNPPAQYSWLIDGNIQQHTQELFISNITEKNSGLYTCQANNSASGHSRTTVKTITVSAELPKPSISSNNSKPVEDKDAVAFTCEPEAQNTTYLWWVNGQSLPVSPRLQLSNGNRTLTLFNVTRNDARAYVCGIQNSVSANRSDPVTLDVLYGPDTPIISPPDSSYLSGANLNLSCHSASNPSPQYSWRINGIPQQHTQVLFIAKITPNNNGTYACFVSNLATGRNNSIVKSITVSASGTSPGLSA
In words: flow cytometry on MKN-45 cells, detection with anti-huIgG(H+L)-Alexa488. The protocol: MKN-45 cells were detached from the culture bottle using Trypsin and were counted using a Casy cell counter. After pelleting at 4° C., 300 g the cells were resuspended in FACS Buffer (2.5% FCS in PBS), adjusted to 2.0E+06 cells/mL dispensed to 96-well PP V-bottom-Platte (25 μL/well=5.0E+04 Zellen/well).
Both antibodies were added to the cells either separated followed by buffer or combined and incubated at 4° C. for 1 h. The cells were then washed twice in FACS buffer. After washing, the cells were resuspended in 50 μL FACS-buffer containing secondary antibody (<huIgG(H+L)>-Alexa488, c=10 μg/mL) and incubated 1 h at 4° C. The cells were then washed twice in FACS buffer and resuspended in 70 μl/well FACS buffer for measurement using a FACS Canto (BD, Pharmingen).

For assay [2], the target named is B3. Nature of the assay: cell-based or functional assay.
Assay [3] has as its target T1, Carcinoembryonic antigen (CEA), …. In words: FACS on MKN-45 cells; hemibody mixed 1:1 with human ISO control; detection with anti-human IgG(H+L) secondary antibody.
Experimental: To assess the functionality of the split antibodies or hemibodies, MKN-45 cells were detached from the culture vessel using accutase at 37° C. for 10 minutes. Subequently, the cells were washed twice in PBS, and seeded into 96 well v-bottom plates to a final density of 4×10⁶ cells/well.
Subsequently, the cells were incubated for 1 h on ice and washed twice in PBS. The cell pellet was resuspended and 40 μl/well of detection reagent was added, either <human IgG(H+L)>FITC, (10 μg/ml) or Pb_Dotam_FITC 1:100=>(10 μg/ml) in PBS/5% FCS. After 60 min incubation on ice, the cells were washed twice in PBS and resuspended in 200 μl PBS/5% FCS for measurement of FITC fluorescence using a FACS canto.

B1: P1AF0712 (CEA CH1A1A split DOTA-VL) (antibody, human IgG1, kappa, L234A L235A)
heavy 1: not shown
heavy 2: QVQLVQSGAEVKKPGASVKVSCKASGYTFTEFGMNWVRQAPGQGLEWMGWINTKTGEATYVEEFKGRVTFTTDTSTSTAYMELRSLRSDDTAVYYCARWDFAYYVEAMDYWGQGTTVTVSSASTKGPSVFPLAPSSKSTSGGTAALGCLVKDYFPEPVTVSWNSGALTSGVHTFPAVLQSSGLYSLSSVVTVPSSSLGTQTYICNVNHKPSNTKVDKKVEPKSCDKTHTCPPCPAPEAAGGPSVFLFPPKPKDTLMISRTPEVTCVVVDVSHEDPEVKFNWYVDGVEVHNAKTKPREEQYNSTYRVVSVLTVLHQDWLNGKEYKCKVSNKALGAPIEKTISKAKGQPREPQVCTLPPSRDELTKNQVSLSCAVKGFYPSDIAVEWESNGQPENNYKTTPPVLDSDGSFFLVSKLTVDKSRWQQGNVFSCSVMHEALHNHYTQKSLSLSPGGGGGSGGGGSGGGGSGGGGSQAVVIQESALTTPPGETVTLTCGSSTGAVTASNYANWVQEKPDHLFTGLIGGHNNRPPGVPARFSGSLIGDKAALTIAGTQTEDEAIYFCALWYSDHWVIGGGTKLTVL
light: DIQMTQSPSSLSASVGDRVTITCKASAAVGTYVAWYQQKPGKAPKLLIYSASYRKRGVPSRFSGSGSGTDFTLTISSLQPEDFATYYCHQYYTYPLFTFGQGTKLEIKRTVAAPSVFIFPPSDEQLKSGTASVVCLLNNFYPREAKVQWKVDNALQSGNSQESVTEQDSKDSTYSLSSTLTLSKADYEKHKVYACEVTHQGLSSPVTKSFNRGEC
notes: CH1A1A anti-CEA IgG1 (knob-into-hole); also called CEA specific SPLIT antibody; P6_A
For B1, the EC50 in assay [1] was 2.7 mg/L. Moreover, the “EC50 µg/ml absolute, DOTA-FITC (Pb-DOTA-FITC detection on MKN-45 cells, FACS)” value in assay [2] came to 2.4 µg/mL.

B2: CEA-split-DOTAM-VH P1AD8749 (antibody, human IgG1, kappa, L234A L235A)
heavy 1: QVQLVQSGAEVKKPGASVKVSCKASGYTFTEFGMNWVRQAPGQGLEWMGWINTKTGEATYVEEFKGRVTFTTDTSTSTAYMELRSLRSDDTAVYYCARWDFAYYVEAMDYWGQGTTVTVSSASTKGPSVFPLAPSSKSTSGGTAALGCLVKDYFPEPVTVSWNSGALTSGVHTFPAVLQSSGLYSLSSVVTVPSSSLGTQTYICNVNHKPSNTKVDKKVEPKSCDKTHTCPPCPAPEAAGGPSVFLFPPKPKDTLMISRTPEVTCVVVDVSHEDPEVKFNWYVDGVEVHNAKTKPREEQYNSTYRVVSVLTVLHQDWLNGKEYKCKVSNKALGAPIEKTISKAKGQPREPQVCTLPPSRDELTKNQVSLSCAVKGFYPSDIAVEWESNGQPENNYKTTPPVLDSDGSFFLVSKLTVDKSRWQQGNVFSCSVMHEALHNHYTQKSLSLSPG
heavy 2: not shown
light: DIQMTQSPSSLSASVGDRVTITCKASAAVGTYVAWYQQKPGKAPKLLIYSASYRKRGVPSRFSGSGSGTDFTLTISSLQPEDFATYYCHQYYTYPLFTFGQGTKLEIKRTVAAPSVFIFPPSDEQLKSGTASVVCLLNNFYPREAKVQWKVDNALQSGNSQESVTEQDSKDSTYSLSSTLTLSKADYEKHKVYACEVTHQGLSSPVTKSFNRGEC
notes: CH1A1A anti-CEA IgG1 (knob-into-hole, PG LALA); Both heavy chains carry VH-CH1, so the light chain pairs with each; also called PRIT Split Antibody with DOTAM-VH; hemibody
Consider B2, for which the “EC50 (read off the curve)” value in assay [3] is approximately 1 mg/L.

For B3, it took 2.3 mg/L to reach a half-maximal effect in assay [1] (EC50).
